According to publication PMC11897055:

Conditions: other: succinylation at K130

Row | Substance | enzymatic_activity | localisation_or_trafficking | degradation_or_half_life
1 | superoxide dismutase 2 (SOD2): ST1326 (CPT1A inhibitor, 10 μM, 48 h) | decreases | – | –
2 | superoxide dismutase 2 (SOD2): K130R | decreases | decreases | –
3 | superoxide dismutase 2 (SOD2): CPT1A knockdown | decreases | decreases | no change
